{
  "source": "paper PMC8303780",
  "about": "“Mutational Analysis of Redβ Single Strand Annealing Protein: Roles of the 14 Lysine Residues in DNA Binding and Recombination In Vivo”",
  "assay_in_all_cases": "fluorescence anisotropy",
  "conditions_in_all_cases": "Anisotropy: 50 mM Tris-HCl pH 7.5, 1 mM DTT, 0.1 mg/mL BSA, 10 nM FAM48, 23 °C (Kd per monomer), gel assay: 10 µM Redβ, 50 µM nt of each oligo, PBS, 37 °C",
  "key": {"[1]": {"molecular_target": "T1, Redβ K111A K111A (bacteriophage λ) (UniProt P03698)", "T1 sequence": "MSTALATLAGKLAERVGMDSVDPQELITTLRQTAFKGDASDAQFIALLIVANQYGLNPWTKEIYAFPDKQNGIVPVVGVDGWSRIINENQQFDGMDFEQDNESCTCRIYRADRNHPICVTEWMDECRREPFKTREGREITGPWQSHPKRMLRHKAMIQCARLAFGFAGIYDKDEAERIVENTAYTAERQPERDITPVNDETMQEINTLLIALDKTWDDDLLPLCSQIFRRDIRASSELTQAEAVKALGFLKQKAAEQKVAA"}, "[2]": {"molecular_target": "T2, Redβ K132A K132A (bacteriophage λ) (UniProt P03698)", "T2 sequence": "T1 sequence with A111K, K132A"}, "[3]": {"molecular_target": "T3, Redβ K148A K148A (bacteriophage λ) (UniProt P03698)", "T3 sequence": "T1 sequence with A111K, K148A"}, "[4]": {"molecular_target": "T4, Redβ K154A K154A (bacteriophage λ) (UniProt P03698)", "T4 sequence": "T1 sequence with A111K, K154A"}, "[5]": {"molecular_target": "T5, Redβ K245A K245A (bacteriophage λ) (UniProt P03698)", "T5 sequence": "T1 sequence with A111K, K245A"}, "[6]": {"molecular_target": "T6, Redβ K253A K253A (bacteriophage λ) (UniProt P03698)", "T6 sequence": "T1 sequence with A111K, K253A"}, "[7]": {"molecular_target": "T7, Redβ K258A K258A (bacteriophage λ) (UniProt P03698)", "T7 sequence": "T1 sequence with A111K, K258A"}, "[8]": {"molecular_target": "T8, Redβ K36A K36A (bacteriophage λ) (UniProt P03698)", "T8 sequence": "T1 sequence with K36A, A111K"}, "[9]": {"molecular_target": "T9, Redβ K69A K69A (bacteriophage λ) (UniProt P03698)", "T9 sequence": "T1 sequence with K69A, A111K"}},
  "note": "Numbering of substitutions follows the chain as printed. pKd: −log10 of the molar value.",
  "data": [
    {"substance": "FAM48 48-mer ssDNA", "values": [
      {"measurement": "pKd", "setting": "[1]", "value": 5.62},
      {"measurement": "pKd", "setting": "[2]", "value": 5.75},
      {"measurement": "pKd", "setting": "[3]", "value": 4.85},
      {"measurement": "pKd", "setting": "[4]", "value": 5.68},
      {"measurement": "pKd", "setting": "[5]", "value": 6.80},
      {"measurement": "pKd", "setting": "[6]", "value": 6.68},
      {"measurement": "pKd", "setting": "[7]", "value": 6.96},
      {"measurement": "pKd", "setting": "[8]", "value": 6.28},
      {"measurement": "pKd", "setting": "[9]", "value": 6.39}
    ]}
  ]
}
